The source of these data is US20200010567A1 (NEURIMMUNE, published 2020).

One experiment deals with T1, PA6: H-(PA)6HHHHHH-NH2.
T1 peptide: H-PAPAPAPAPAPAHHHHHH-NH2
The experiment in a line: indirect ELISA, coated His-tagged peptide. The method in brief:
(§1)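 Antibodies at graded concentrations bound for 1 h at room temperature to wells carrying 50 μg/ml His-tagged repeat peptide (pH 9.42 carbonate coating, 2% BSA block). Bound IgG read colorimetrically via HRP anti-human Fcγ; EC₅₀ estimated by non-linear regression.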

In a further experiment the target is T2, PA20: H-(PA)20HHHHHH-NH2 (C-terminal amide).
T2 peptide: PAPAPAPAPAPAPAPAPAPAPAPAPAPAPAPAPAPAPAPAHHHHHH
The experiment in a line: indirect ELISA, coated His-tagged peptide. The method in brief: as §1

A further experiment addresses T3, GR6: H-(GR)6HHHHHH-NH2.
T3 peptide: H-GRGRGRGRGRGRHHHHHH-NH2
In words: indirect ELISA, coated His-tagged peptide. The gist of the method: as §1

Another experiment deals with T4, GR5: H-(GR)5HHHHHH-NH2.
T4 peptide: H-GRGRGRGRGRHHHHHH-NH2
The experiment in a line: indirect ELISA, coated His-tagged peptide. The method in brief: as §1

The target of the next experiment is T5, GR20: H-(GR)20HHHHHH-NH2 (C-terminal amide).
T5 peptide: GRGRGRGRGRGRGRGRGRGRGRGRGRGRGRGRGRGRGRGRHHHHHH
In words: indirect ELISA, coated His-tagged peptide. The gist of the method: as §1

A further experiment addresses T6, PR10: H-(PR)10HHHHHH-NH2 (C-terminal amide).
T6 peptide: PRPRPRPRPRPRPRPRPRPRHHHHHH
In words: indirect ELISA, coated His-tagged peptide. The gist of the method: as §1

Experiment [1] has as its target T7, BSA-coupled (GP)15 DPR protein peptide (bovine, conjugated via a bifunctional linker (SMCC) to bovine serum albumin).
T7 construct: also called BSA-(GP)15
In words: indirect ELISA, BSA-coupled peptide coated, antibody titrated [also D00014 FIG. 3H]. Here is the method:
(§2) In brief, dipeptide repeat proteins were synthesized and purified by Schafer-N(Copenhagen, Denmark): (GA)₁₅: H-CHHHHHH(GA)₁₅-OH; (GP)₁₅: H-C(GP)₁₅-OH; (GR)₁₅: H-C(GR)₁₅-OH; (PA)₁₅: H-C(PA)₁₅-OH; (PR)₁₅: H—C(PR)₁₅-OH. DPR protein peptides were then conjugated via a bifunctional linker (SMCC) to bovine serum albumin (BSA). 96-well microplates (Corning Incorporated, Corning, USA) were coated with BSA-coupled or -uncoupled dipeptide repeat protein peptides at a concentration of either 5 μg/ml or 20 μg/ml in coating buffer (15 mM Na₂CO₃, 35 mM NaHCO₃, pH 9.42). Non-specific binding sites were blocked for 1 h at room temperature with PBS/0.1% Tween®-20 containing 2% BSA (Sigma-Aldrich, Buchs, Switzerland). Primary antibodies were diluted to the indicated concentrations and incubated 1 h at room temperature, followed by incubation with a donkey anti-human IgG Fcγ-specific antibody conjugated with HRP (Jackson ImmunoResearch Laboratories, Inc., West Grove, USA). Binding was determined by measurement of HRP activity in a standard colorimetric assay. EC₅₀ values were estimated by non-linear regression using GraphPad Prism software (San Diego, USA).

Experiment [2] addresses T8, (GA)15: H-CHHHHHH(GA)15-OH.
T8 construct: synthetic, not coupled to BSA; also called poly-GA DPR protein peptide
T8 peptide: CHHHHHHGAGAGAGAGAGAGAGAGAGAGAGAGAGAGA
The experiment in a line: indirect ELISA, uncoupled peptide coated, antibody titrated [also D00013 FIG. 3D]. Here is the method:
as §2

For experiment [3], the target named is T9, BSA-coupled (GA)15 DPR protein peptide (bovine, conjugated via a bifunctional linker (SMCC) to bovine serum albumin).
T9 construct: also called BSA-(GA)15
The experiment in a line: indirect ELISA, BSA-coupled peptide coated, antibody titrated [also D00013 FIG. 3D]. The method, then: as §2

The next experiment deals with T10, GP2: H-(GP)2HHHHHH-NH2.
T10 peptide: H-GPGPHHHHHH-NH2
In words: indirect ELISA, His-tagged peptide coated at 50 ug/ml, antibody titrated [also D00026 FIG. 7J]. An excerpt: (§3) In brief, dipeptide repeat proteins were synthesized and purified by Schafer-N (Copenhagen, Denmark): GA₂₀: H-(GA)₂₀HHHHHH-NH₂; GA₁₀: H-(GA)₁₀HHHHHH-NH₂; GA₆: H-(GA)₆HHHHHH-NH₂; GA₅: H-(GA)₅HHHHHH-NH₂; GA₄: H-(GA)₄HHHHHH-NH₂; GA₃: H-(GA)₃HHHHHH-NH₂; GA₂: H-(GA)₂HHHHHH-NH₂; GP₂₀: H-(GP)₂₀HHHHHH-NH₂; GP₁₀: H-(GP)₁₀HHHHHH-NH₂; GP₆: H-(GP)₆HHHHHH-NH₂; GP₅: H-(GP)₅HHHHHH-NH₂; GP₄: H-(GP)₄HHHHHH-NH₂; GP₃: H-(GP)₃HHHHHH-NH₂; GP₂: H-(GP)₂HHHHHH-NH₂. GR₂₀: H-(GR)₂₀HHHHHH-NH₂; GR₁₀: H-(GR)₁₀HHHHHH-NH₂; GR₆: H-(GR)₆HHHHHH-NH₂; GR₅: H-(GR)₅HHHHHH-NH₂; GR₄: H-(GR)₄HHHHHH-NH₂; GR₃: H-(GR)₃HHHHHH-NH₂; GR₂: H-(GR)₂HHHHHH-NH₂; PA₂₀: H-(PA)₂₀HHHHHH-NH₂; PA₁₀: H-(PA)₁₀HHHHHH-NH₂; PA₆: H-(PA)₆HHHHHH-NH₂; PA₅: H-(PA)₅HHHHHH-NH₂; PA₄: H-(PA)₄HHHHHH-NH₂; PA₃: H-(PA)₃HHHHHH-NH₂; PA₂: H-(PA)₂HHHHHH-NH₂; PR₂₀: H-(PR)₂₀HHHHHH-NH₂; PR₁₀: H-(PR)₁₀HHHHHH-NH₂; PR₆: H-(PR)₆HHHHHH-NH₂; PR₅: H-(PR)₅HHHHHH-NH₂; PR₄: H-(PR)₄HHHHHH-NH₂; PR₃: H-(PR)₃HHHHHH-NH₂; PR₂: H-(PR)₂HHHHHH-NH₂. 96-well microplates (Corning Incorporated, Corning, USA) were coated with dipeptide repeat protein peptides at a concentration of 50 μg/ml in coating buffer (15 mM Na₂CO₃, 35 mM NaHCO₃, pH 9.42). Non-specific binding sites were blocked for 1 h at room temperature with PBS/0.1% Tween®-20 containing 2% BSA (Sigma-Aldrich, Buchs, Switzerland). Primary antibodies were diluted to the indicated concentrations and incubated 1 h at room temperature, followed by incubation with a donkey anti-human IgG Fcγ-specific antibody conjugated with HRP (Jackson ImmunoResearch Laboratories, Inc., West Grove, USA). Binding was determined by measurement of HRP activity in a standard colorimetric assay. EC₅₀ values were estimated by non-linear regression using GraphPad Prism software (San Diego, USA).

For a further experiment, the target named is T11, GP4: H-(GP)4HHHHHH-NH2.
T11 peptide: H-GPGPGPGPHHHHHH-NH2
The experiment is described as above.
From the text: as §3

The target of the next experiment is T12, GP3: H-(GP)3HHHHHH-NH2.
T12 peptide: H-GPGPGPHHHHHH-NH2
Described as above.
From the text: as §3

T7 sequence (peptide, as listed by the source limits assumed, chain 1 of 2): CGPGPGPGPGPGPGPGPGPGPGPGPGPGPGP
T7 sequence (P02769 25-607 limits assumed, chain 2 of 2): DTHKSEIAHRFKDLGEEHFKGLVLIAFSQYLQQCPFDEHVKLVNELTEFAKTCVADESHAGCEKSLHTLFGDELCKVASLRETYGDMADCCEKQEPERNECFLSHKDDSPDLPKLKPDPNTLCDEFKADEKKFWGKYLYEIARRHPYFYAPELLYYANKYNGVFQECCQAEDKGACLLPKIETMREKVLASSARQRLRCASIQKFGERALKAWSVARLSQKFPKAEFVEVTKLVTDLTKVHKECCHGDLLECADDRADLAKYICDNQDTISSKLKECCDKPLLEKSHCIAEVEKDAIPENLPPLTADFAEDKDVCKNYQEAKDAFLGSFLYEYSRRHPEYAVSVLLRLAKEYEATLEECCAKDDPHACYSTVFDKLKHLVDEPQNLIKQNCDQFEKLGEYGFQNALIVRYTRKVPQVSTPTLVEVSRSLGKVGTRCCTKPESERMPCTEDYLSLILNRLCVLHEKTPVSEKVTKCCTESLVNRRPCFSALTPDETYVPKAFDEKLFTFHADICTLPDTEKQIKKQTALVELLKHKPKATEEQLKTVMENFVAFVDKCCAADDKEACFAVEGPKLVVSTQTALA
T9 sequence (P02769 25-607 limits assumed): as the sequence (P02769 25-607 limits assumed, chain 2 of 2) above

B1: NI-308.4M1 (antibody, V domains shown)
VH: EVQLVETGGGVVQPGGSLRLSCEASGFTIGTYAMHWVRQFPGKGLDWVAVISFDGTTEYYTDAVKGRFTISRDNAKNTLYLQMNYLRGDDTAIYFCARDFTSSGETGSWTQVPDLWGQGTLVTVSS
VL: CEIVMTQSPATLSLSPGERATLSCRASQSVTKYLAWYQQKPGQAPRLLIYDVSYRAAGTPARFSGSGSGTDFTLTISSLEPEDFAVYYCHQRSSWPPVTFGGGTKVEIK
notes: Recombinant complete human IgG1, kappa
In the case of B1, the results for the concentration for a half-maximal effect (EC50) with PA6: H-(PA)6HHHHHH-NH2 and with PA20: H-(PA)20HHHHHH-NH2 were 4.3 nM and 0.06 nM, respectively.

B2: NI-308.6B11 (antibody, V domains shown)
VH: EVQLVQSGAEVKRPGASVKVSCKVSGYTLTELSMHWVRQAPGKGLEWMGGFDPEDGETVYAQKFQGRVTMTEDTSTDTAYMELSSLRSEDTALYHCATYGSSWHWNEGNEGSYYFDYWGQGTLVTVSS
VL: CDIQMTQSPSSLSASVGDRVTITCQASQDISIYLNWYQQKPGKAPKLLIYDASNLETGVPSRFSGSGSGTDFTFTISGLQPEDVARYYCQQYDDLPITFGQGTRLEIK
notes: as for B1
For B2, the values for the 50% effective concentration (EC50) with GR6: H-(GR)6HHHHHH-NH2, in the experiment with GR5: H-(GR)5HHHHHH-NH2 and with GR20: H-(GR)20HHHHHH-NH2 were 0.33 nM, 0.47 nM and 0.25 nM, respectively.

B3: NI-308.24E11 (antibody, V domains shown)
VH: QVQLQESGPGLVKPSETLSLTCTVSTTSLRSYFWSWIRQPPGKGLEWIGYVYYSGSTIYNPSLKNRVTISIDTSKNQFSLNLRSVTAADTAMYFCARGVPAETDARDFPPYYFDHWGQGTLVTVSS
VL: CDIQLTQSPSSLSASVGNRITFTCQASQDIRYYLNWYQQKPGKAPKLLIYDVSNLDTGVPPRFSGSGSGTNFTFTISSLQPEDIAVYYCQQYEGLPVTFGGGTKVEIK
notes: as for B1
B3 gave an EC50 in the experiment with PR10: H-(PR)10HHHHHH-NH2 of 31.7 nM.

B4: NI-308.46E9 (antibody, V domains shown)
VH: QVQLQESGPGLVKPSETLSLTCTVSGASISGSTYYWGWIRQPPGKGLEYIGRIYYSGSTYYNPSLKSRATISVDTSKNQLSLTLSSVTAADTAVYYCVRPFYAGSGNSPFDYWGQGTLVTVSS
VL: CEIVLTQSPATVSVSPGERATLSCRASQSVSTNLAWYQQKPGQPPRLLIYGASTRATGIPARFSGSGSGAEFTLTISSLQSEDFVVYYCQQYNNWPPAFGGGTKVEIK
notes: as for B1
In experiment [1], B4 came in with a 50% effective concentration (EC50) of 12.1 nM.

B5: NI-308.28G1 (antibody, V domains shown)
VH: QVQLQESGPRLVKPSETLSLTCTVAGGSVNSYYWTWIQQSPGKGLEWLGRIYIAGRTNYNPSLTSRIALSVDTSRNQLSLKLTSVTAADTAIYYCARWGAESGDYYYGVDVWGPGTLVTVSS
VL: EIVMTQSPLSLPVTPGEPASISCKSSEGLLHSNGYTYLDWYLQKPGQAPQLLIFLASNRAAGVPDRFSGSGSGTDFTLKISRVEAEDVGVYYCMQAIQSPWTFGPGTKVEIK
notes: as for B1
Take B5: the results for the EC50 in experiment [2] and in [3] were 2 nM and 0.66 nM, respectively.

B6: NI-308.5G2 (antibody, V domains shown)
VH: EVQLVQSGADLRNPGASVTVSCTASGYHFADNAINWLRQAPGQRLEWMGWINIYSGNTKYSQNFQGRVTFTRNTSASTAFMHLRSLRSEDTAVYFCARDPDSSGYYLPYFDYWGQGTLVTVSS
VL: DIQLTQSPDSLTLSLGERATINCKSSQSVFYNSNNKNYLAWYQQKPGQPPKLLMYWASTRESGVTDRFSGSGSGTDFTLTITNLQAEDVAVYYCQQFYSSPLTFGGGTKVEIK
notes: as for B1
For B6, the binding result in the experiment with GP2: H-(GP)2HHHHHH-NH2, with GP4: H-(GP)4HHHHHH-NH2 and with GP3: H-(GP)3HHHHHH-NH2 was “no binding (tested: about 4x10^5 pM (last point))” each time.
